Ends that are not written are not given here.
Key:
[1] = biological target: T1, PL37 in multiple antigenic peptide form (human, also: multiple antigenic peptide form, core and copy number not given here, abstract and print the sequence differently); test: SPR (Biacore), PL37-MAP amine-coupled to CM5 chip, peptide as analyte
T1 construct: PL37 is the fragment aa 37-53 of C5a anaphylatoxin; The assays used the MAP form; its core and valency are not described; also called PL37-MAP
T1 peptide: RAARISLGPRCIKAFTE
Protocol: (§1) FIG. 1. Binding of C-peptides to immobilized PL37-MAP and C5a using Biacore equipment. An overlay plot of response curves obtained from the Biacore instrument when various concentrations of Pep-A and Pep-B were injected. All samples were injected at time 0, and the association was monitored as an increase in RU. a, Various concentrations of Pep-A were injected over the PL37-MAP-coupled flow cell. b, The same concentrations of Pep-B were also injected over the PL37-MAP-coupled flow cell. c, Pep-A was injected over the C5a-coupled flow cell at the same concentrations of Pep-A as in FIG. 1a. d, The same concentrations of Pep-B were also injected over the C5a-coupled flow cell.
Binding interactions between PL37 or C5a with C-peptides were evaluated using surface plasmon resonance (SPR) technology with the Biacore system. PL37 and C5a were covalently immobilized on the CM5 sensor chip by amine coupling methods using N-ethyl-N-(dimethylaminopropyl)carbodiimide/N-hydroxysuccinimide (EDC/NHS) according to the manufacturer's instructions. […] Binding interactions were determined by passing samples simultaneously over both the EA-blocked cell and the flow cell with immobilized PL37 or C5a so as to obtain units of resonance response (RU) by subtraction of the background using Biacore software (BIA evaluation). […]

recombinant human C5a = biological target: T2, recombinant human C5a (human, UniProt P01031 678-751); test: SPR (Biacore), C5a amine-coupled to CM5 chip, peptide as analyte
T2 construct: domain: C5a anaphylatoxin (74-amino acid peptide); The calcium assay names recombinant human C5a; The SPR section says only 'C5a'; C5a is a 74-residue fragment of it; also called RhC5a; C5a anaphylatoxin
T2 sequence (looked up): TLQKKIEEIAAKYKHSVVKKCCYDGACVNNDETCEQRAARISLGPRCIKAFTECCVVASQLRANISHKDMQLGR
Protocol: as §1
Binding interactions between PL37 or C5a with C-peptides were evaluated using surface plasmon resonance (SPR) technology with the Biacore system. PL37 and C5a were covalently immobilized on the CM5 sensor chip by amine coupling methods using N-ethyl-N-(dimethylaminopropyl)carbodiimide/N-hydroxysuccinimide (EDC/NHS) according to the manufacturer's instructions. […] Binding interactions were determined by passing samples simultaneously over both the EA-blocked cell and the flow cell with immobilized PL37 or C5a so as to obtain units of resonance response (RU) by subtraction of the background using Biacore software (BIA evaluation).

- binding result [1]: no binding
- binding result (recombinant human C5a): no binding
B1: Peptide-B (peptide)
peptide: ASTAPARAGLPRLPKFF
notes: Synthetic 17-residue complementary peptide designed with MIMETIC against PL37; also called Pep-B; C-peptide B

Source: patent US20060063701A1 (INSTITUTE FOR PROTEIN SCIENCE, published 2006)
